Experimental data as given in patent US20180282402A1 (ATYR PHARMA, published 2018).
No end group written: not given here.

How the values were obtained:
[1] = biological target: T1, NRP1-His (R&D Systems #3870-N1) (human, UniProt O14786-2 22-644); test: SPR: NRP1 as analyte over immobilized Fc-HRS(2-60)
T1 construct: not shown: His tag

[2] = biological target: T2, Mouse PLXNA1-His (R&D Systems #4309-PA) (mouse, UniProt P70206 28-1242, limits assumed); test: SPR: mouse Plexin A1 as analyte over immobilized Fc-HRS(2-60)
T2 construct: also called mouse Plexin A1; not shown: His tag
T2 sequence (P70206 28-1242 limits assumed): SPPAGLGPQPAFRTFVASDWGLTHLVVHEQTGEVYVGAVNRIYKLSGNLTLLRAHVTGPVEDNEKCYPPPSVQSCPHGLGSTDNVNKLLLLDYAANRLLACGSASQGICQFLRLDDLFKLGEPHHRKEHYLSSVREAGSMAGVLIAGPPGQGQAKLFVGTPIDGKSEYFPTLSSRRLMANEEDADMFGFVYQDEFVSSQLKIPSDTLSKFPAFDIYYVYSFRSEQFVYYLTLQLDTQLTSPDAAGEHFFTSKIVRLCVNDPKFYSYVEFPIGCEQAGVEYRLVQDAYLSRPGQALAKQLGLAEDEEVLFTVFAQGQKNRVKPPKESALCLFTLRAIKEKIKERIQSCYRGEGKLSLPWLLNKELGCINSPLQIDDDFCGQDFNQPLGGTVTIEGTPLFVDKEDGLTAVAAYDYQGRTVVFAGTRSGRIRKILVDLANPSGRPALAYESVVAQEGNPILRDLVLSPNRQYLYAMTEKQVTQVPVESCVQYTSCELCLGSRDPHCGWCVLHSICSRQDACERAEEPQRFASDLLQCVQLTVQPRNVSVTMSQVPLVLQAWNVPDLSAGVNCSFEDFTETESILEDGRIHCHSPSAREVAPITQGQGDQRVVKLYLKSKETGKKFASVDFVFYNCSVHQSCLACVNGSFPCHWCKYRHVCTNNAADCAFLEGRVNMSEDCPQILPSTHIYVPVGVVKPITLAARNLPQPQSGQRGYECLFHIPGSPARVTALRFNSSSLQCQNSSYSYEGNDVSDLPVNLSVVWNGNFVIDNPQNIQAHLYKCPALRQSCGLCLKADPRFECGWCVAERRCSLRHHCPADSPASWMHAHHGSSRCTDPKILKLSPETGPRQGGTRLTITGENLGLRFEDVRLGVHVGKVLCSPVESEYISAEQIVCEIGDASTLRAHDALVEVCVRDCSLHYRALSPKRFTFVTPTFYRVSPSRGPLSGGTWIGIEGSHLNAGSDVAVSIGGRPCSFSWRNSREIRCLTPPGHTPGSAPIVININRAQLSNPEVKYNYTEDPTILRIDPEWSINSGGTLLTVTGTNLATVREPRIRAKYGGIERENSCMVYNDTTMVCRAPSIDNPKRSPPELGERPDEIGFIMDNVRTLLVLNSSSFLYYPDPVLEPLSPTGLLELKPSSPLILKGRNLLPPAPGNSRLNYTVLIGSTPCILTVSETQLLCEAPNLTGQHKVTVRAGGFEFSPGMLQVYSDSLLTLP

[3] = biological target: T3, Rat NRP2-Fc-His (R&D Systems #567-N2) (rat, UniProt O35276 23-858, limits assumed); test: SPR: 50 nM rat NRP2 as analyte over immobilized Fc-HRS(2-60) [panel A]
T3 construct: not shown: Fc and His tag
T3 sequence (looked up): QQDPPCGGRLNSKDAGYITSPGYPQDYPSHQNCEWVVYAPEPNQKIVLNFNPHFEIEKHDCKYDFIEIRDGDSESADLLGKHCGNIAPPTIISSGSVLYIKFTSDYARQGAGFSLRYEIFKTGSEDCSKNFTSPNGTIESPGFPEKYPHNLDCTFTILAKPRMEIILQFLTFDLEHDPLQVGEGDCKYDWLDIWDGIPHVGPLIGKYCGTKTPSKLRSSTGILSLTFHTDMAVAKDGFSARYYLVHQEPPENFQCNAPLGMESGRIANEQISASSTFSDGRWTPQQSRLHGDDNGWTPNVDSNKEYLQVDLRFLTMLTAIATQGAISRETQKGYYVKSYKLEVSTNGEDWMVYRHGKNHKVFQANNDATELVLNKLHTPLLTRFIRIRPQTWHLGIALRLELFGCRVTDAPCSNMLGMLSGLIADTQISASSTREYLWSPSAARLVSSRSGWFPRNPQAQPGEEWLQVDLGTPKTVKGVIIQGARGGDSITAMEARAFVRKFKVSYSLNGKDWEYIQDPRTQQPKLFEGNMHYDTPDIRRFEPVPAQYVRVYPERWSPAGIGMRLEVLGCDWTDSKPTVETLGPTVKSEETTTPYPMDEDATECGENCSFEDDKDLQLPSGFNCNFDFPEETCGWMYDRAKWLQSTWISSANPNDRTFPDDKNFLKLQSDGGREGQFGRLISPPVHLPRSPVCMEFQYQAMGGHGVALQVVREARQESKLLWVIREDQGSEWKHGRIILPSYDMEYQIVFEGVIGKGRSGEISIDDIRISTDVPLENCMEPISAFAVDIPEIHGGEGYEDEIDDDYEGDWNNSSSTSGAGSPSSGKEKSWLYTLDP

[4] = biological target: T4, Neuropilin 2A (NRP2A, NM_003872.2) on cells (human, UniProt O60462 23-931); test: Retrogenix cell microarray on HEK293 cells, sequential staining, 20 ug/ml test protein, AF647 anti-human IgG Fc detection
T4 construct: Used here for the Retrogenix HEK293 array and for the untagged NRP2v2 stably expressed on Expi293 cells; also called NRP2 variant 2; NRP2v2
Experimental: The detection antibody was used at screening concentrations of 2, 5, and 20 μg/ml, as more fully described below.
Primary hits (duplicate spots) were identified by analyzing fluorescence intensity in the AlexaFluor 647 and ZsGreen1 emission channels using the ImageQuant system, following standard fluorescent methodology. […] Additionally all vectors encoding all hits, plus control vectors, were spotted in duplicate on new slides, and used to reverse transfect human HEK293 cells as before.

[5] = biological target: T5, NRP2a-GFP fusion protein on HEK293T cells (human, UniProt O60462 23-931); test: immunofluorescence microscopy (IN Cell Analyzer) on fixed HEK293T cells expressing NRP2v2-GFP, GFP-bright gate; Fc-HRS(2-60) titrated in 2-fold steps and complexed with anti-Fc-PE [panel A]
T5 construct: Transiently expressed; cells fixed before staining; also called NRP2v2-GFP; cell-expressed NRP2a; not shown: GFP (Origene RG220706, NM_003872 ORF clone)
Experimental: HEK293T cells previously transfected with NRP2v2-GFP were passed the night before staining to 96 well Greiner Clear flat bottomed Microplates pre-coated with collagen coating solution. Supernatants were removed and cells were washed 1 time with binding buffer. Cells were then fixed with 50 μL of 3.7% methanol-free formaldehyde for 20 minutes at room temperature. Cells were washed 2× with binding buffer and then blocked with 100 μL of blocking buffer for 1 hour at room temperature. The cells were then washed one time with binding buffer and then incubated with 50 μL of staining complex overnight at 4 degrees Celsius. Cells were then washed 3 times with binding buffer, and then nuclei were counter stained with […] Hoechst diluted in DPBS for 10 minutes at room temperature. The Hoechst stain was replaced with 1×PBS and subsequently read on an IN Cell Analyzer 2200. 20× images were acquired and analyzed using In Cell Analyzer 1000 Workstation software. Segmentation of the cell mask was achieved using the GFP channel, and the average PE signal intensity was determined within this mask above a threshold intensity of 5000 (termed GFP Bright cells).

B1: Fc-HRS(2-60) (Fc fusion)
chain: {human IgG Fc}-AERAALEELVKLQGERVRGLKQQKASAELIEEEVAKLLKLKAQLGPDESKQKFVLKTPK
modifications: also: linker to Fc not given here, biotinylated for flow assay (maleimide-PEG11-biotin, ~3.35 per molecule)
notes: Fc at the N-terminus, HRS residues 2-60 (WHEP domain) at the C-terminus; in the imaging assay pre-complexed with anti-Fc-PE; also called HRS-Fc fusion protein construct; ATYR1923; not shown: human IgG Fc region
B1: no binding (tested: 50 nM) [1]; no binding (tested: 50 nM) [2]; binds [3]. B1: binds [4]; binds [5].
